Experimental data as given in patent US9127073B2, “Rock2 and Rock3, two new gain-of-function variants of the cytokinin receptors AHK2 and AHK3” (Freie Universitat Berlin, priority 2009, dated 2015).

Legend:
[1] = test system: Arabidopsis thaliana Columbia (Col-0); experiment: Natural leaf senescence of leaf 6 (Fv/Fm of PSII, chlorophyll content) under long-day conditions; format: in vivo
Method: (§1) The Columbia (Col-0) ecotype of Arabidopsis thaliana was used as the wild type. Plants were grown in the greenhouse on soil or under sterile conditions in Petri dishes containing ATS-medium (Estelle, M. A., and Somerville, C. (1986). Auxin-resistant mutants of Arabidopsis thaliana with an altered morphology. Mol. Gen. Genet. 206, 200-206). All plants were grown at 22° C. under long-day conditions (16 h light/8 h dark).
The maximum efficiency of PSII photochemistry (Fv/Fm ratio) of dark adapted plants was measured with FluorCam (Photon Systems Instruments, Brno, Czech Republic). Chlorophyll contents of individual leaves were measured using the Chlorophyll Meter SPAD-502 (Konika Minolta, Bremen, Germany), taking the mean value of two measurements on the same leaf.

35S:CKX1 plants = experiment: Reversion of the cytokinin-deficiency phenotype in the 35S:CKX1 background; format: in vivo, Arabidopsis thaliana
Method: Approximately 25000 35S:CKX1 seeds (Werner, T., Motyka, V., Laucou, V., Smets, R., Van Onckelen, H., and Schmülling, T. (2003). Cytokinin-deficient transgenic Arabidopsis plants show multiple developmental alterations indicating opposite functions of cytokinins in the regulation of shoot and root meristem activity. Plant Cell 15, 2532-2550) were soaked for 16 h in 100 ml 0.2% (v/v) ethyl methane sulfonate at room temperature. The M1 generation was grown as single plants and the M2 generation was screened for plants with wild-type-like phenotype.
Mapping populations for rock2 and rock3 were generated by crossing the rock2 35S:CKX1 and rock3 35S:CKX1 plants with wild type ecotype Landsberg erecta. The F2 progeny plants were used to map rock2 and rock3.
In order to compare the consequences of the rock3 mutation with those of the ore12 mutation the latter was introgressed into the 35S:CKX1 background (the rock3 was identified in this background). […] However, at different time points during development the degree of reversion is less strong than the reversion achieved with the rock3 allele. This difference is most evident for seedling size and rosette diameter. These two parameters are good indicators for a changed cytokinin status of the CKX1ox plants.

[2] = test system: Arabidopsis thaliana Columbia (Col-0); experiment: Vegetative growth and fresh weight of mutant alleles in wild-type background; format: in vivo; details: for vegetative growth of wild-type plants: mutant allele in Col-0 background, compared to wild type
Method: as §1
In order to analyze the consequences of the rock2 and rock3 mutations in wild type, the rock2 and rock3 suppressor mutants in 35S:CKX1 background were crossed to wild-type Columbia. […] The F2 generation was screened for rock2 and rock3 plants in wild-type background (called then rock2 and rock3 mutants).
(§2) At 18 days after germination digital pictures were taken of rosettes and the rosette diameter was measured using the Scion Image program (Scion Corporation, Frederick, Md., USA). Flowers at stage 14 were photographed and their size was also measured using the Scion Image program.
(§3) Fresh weights were measured by weighting either rosettes, shoots without rosettes, or whole aerial parts of the plants. The final plant height and the number of siliques were determined after termination of flowering. For analysis of seed yield, plants were put into paper bags after termination of flowering. After plants were kept dry for additional three weeks, total seed weight was determined.

[3] = test system: Arabidopsis thaliana Columbia (Col-0); experiment: Shoot parameters of mutant plants and transgenic lines (height, siliques, stem thickness, flower size); format: in vivo; details: compared to wild-type or ore12 plants; for size of flowers: flowers at stage 14
Method: as §1
For the construction of the pAHK2:rock2 transgene a 2124 by promoter region of AHK2 was amplified by PCR from genomic DNA of A. thaliana Col-0 and cloned with Gateway™ technology into the pDONR™ P4-P1R entry vector (Invitrogen, Karlsruhe, Germany). After cloning the AHK2 coding sequence with Gateway™ technology into the pDONR™ 221 entry vector (Invitrogen) the rock2 point mutation was introduced by PCR based mutagenesis with the “QuickChange Site-Directed Mutagenesis”-Kit (Stratagene, La Jolla, USA) to obtain the rock2 Allele. Both fragments were combined with Multisite Gateway™ recombinational cloning in the pK7m24GW,3 vector (Karimi et al., 2005). To obtain the pAHK3:rock3 construct a 2062 bp promoter region of AHK3 was amplified by PCR from genomic DNA of A. thaliana Col-0 and the fragment was inserted into pDONR™P4-P1R entry vector (Invitrogen). The AHK3 cDNA containing the open reading frame of the gene was PCR-amplified from A. thaliana Col-0 and cloned into pDONR™222 entry vector (Invitrogen). To introduce the rock3 point mutation the “QuickChange Site-Directed Mutagenesis”-Kit (Stratagene, La Jolla, USA) was used to get the rock3 allele. The AHK3 promoter and the ROCK3 cDNA were combined with Multisite Gateway™ recombinational cloning in the pK7m24GW,3 vector (Karimi, M., De Meyer, B., and Nilson, P. (2005). Modular cloning in plant cells. Trends Plant Sci. 10, 103-105). Both constructs were introduced into Agrobacterium tumefaciens strain GV3101 and A. thaliana Col-0 plants were transformed using the floral-dip method (Clough, S. J., and Bent, A. F. (1998). Floral dip: a simplified method for Agrobacterium-mediated transformation of Arabidopsis thaliana. Plant J. 16, 735-743). Transgenic lines were selected using kanamycin and propagated into the T3 or T4 generation.
as §2, §3

| Molecule | longer life time of leaves compared to wild-type leaves ([1]; leaf 6, long-day conditions) | reversion of the phenotypic consequences of CKX1 overexpression (cytokinin deficiency) (35S:CKX1 plants) | vegetative growth of wild-type plants [2] | stem thickness [3] | size of flowers [3] | onset of leaf senescence ([1]; leaf 6, compared to wild type and among mutants) | increase in fresh weight of rosettes and whole plant over the complete life cycle ([2]; difference particularly evident at 32-40 DAG) | number of siliques on the main stem [3] | shoot height (plant height) [3] |
| --- | --- | --- | --- | --- | --- | --- | --- | --- | --- |
| rock3: constitutively active gain-of-function variant of cytokinin receptor AHK3 of Arabidopsis thaliana, SEQ ID No. 2, encoded by SEQ ID No. 4 (protein, listed as Arabidopsis thaliana) MSLFHVLGFGVKIGHLFWMLCCWFVSWFVDNGIEDKSGLLVGSVGDLEKTKMTTLKKKNKMWFWNKISSSGLKIPSFSYQFLGSVKFNKAWWRKLVVVWVVFWVLVSIWTFWYFSSQAMEKRKETLASMCDERARMLQDQFNVSMNHVQAMSILISTFHHGKIPSAIDQRTFSEYTDRISFERPLTSGVAYAMRVLHSEREEFERQQGWTIRKMYSLEQNPVHKDDYDLEALEPSPVQEEYAPVIFAQDTVSHVVSLDMLSGKEDRENVLRARSSGKGVLTAPFPLIKTNRLGVILTFAVYKRDLPSNATPKERIEATNGYLGGVFDIESLVENLLQQLASKQTILVNVYDITNHSQPISMYGTNVSADGLERVSPLIFGDPLRKHEMRCRFKQKPPWPVLSMVTSFGILVIALLVAHIIHATVSRIHKVEEDCDKMKQLKKKAEAADVAKSQFLATVSHEIRTPMNGVLGMLHMLMDTELDVTQQDYVRTAQASGKALVSLINEVLDQAKIESGKLELEEVRFDLRGILDDVLSLFSSKSQQKGVELAVYISDRVPDMLIGDPGRFRQILTNLMGNSIKFTEKGHIFVTVHLVDELFESIDGETASSPESTLSGLPVADRQRSWENFKAFSSNGHRSFEPSPPDINLIVSVEDTGVGIPVEAQSRIFTPFMQVGPSISRTHGGTGIGLSISKCLVGLMKGEIGFSSTPKVGSTFTFTAVFSNGMQPAERKNDNNQPIFSEFRGMKAVVVDHRPARAKVSWYHFQRLGIRVEVVPRVEQALHYLKIGTTTVNMILIEQEIWNREADDFIKKLQKDPLFLSPKLILLANSVESSISEALCTGIDPPIVIVKPLRASMLAATLQRGLGIGIREPPQHKGPPALILRNLLLGRKILIVDDNNVNLRVAAGALKKYGADVVCAESGIKAISLLKPPHEFDACFMDIQMPEMDGFEATRRIRDMEEEMNKRIKNGEALIVENGNKTSWHLPVLAMTADVIQATHEECLKCGMDGYVSKPFEAEQLYREVSRFFNSPSDTES | about ten | suppress the phenotypic consequences of cytokinin deficiency | significantly enhance the vegetative growth | thicker stems | bigger flowers |  |  |  |  |
| rock2: constitutively active gain-of-function variant of cytokinin receptor AHK2 of Arabidopsis thaliana, SEQ ID No. 1, encoded by SEQ ID No. 3 (protein, listed as Arabidopsis thaliana) MSITCELLNLTSKKAKKSSSSDKKWLKKPLFFLILCGSLVIVLVMFLRLGRSQKEETDSCNGEEKVLYRHQNVTRSEIHDLVSLFSDSDQVTSFECHKESSPGMWTNYGITCSLSVRSDKQETRGLPWNLGLGHSISSTSCMCGNLEPILQQPENLEEENHEEGLEQGLSSYLRNAWWCLILGVLVCHKIYVSHSKARGERKEKVHLQEALAPKKQQQRAQTSSRGAGRWRKNILLLGILGGVSFSVWWFWDTNEEIIMKRRETLANMCDERARVLQDQFNVSLNHVHALSILVSTFHHGKIPSAIDQRTFEEYTERTNFERPLTSGVAYALKVPHSEREKFEKEHGWAIKKMETEDQTVVQDCVPENFDPAPIQDEYAPVIFAQETVSHIVSVDMMSGEEDRENILRARASGKGVLTSPFKLLKSNHLGVVLTFAVYDTSLPPDATEEQRVEATIGYLGASYDMPSLVEKLLHQLASKQTIAVDVYDTTNTSGLIKMYGSEIGDISEQHISSLDFGDPSRNHEMHCRFKHKLPIPWTAITPSILVLVITFFVGYILYEAINRIATVEEDCQKMRELKARAEAADIAKSQFLATVSHEIRTPMNGVLGMLKMLMDTDLDAKQMDYAQTAHGSGKDLTSLINEVLDQAKIESGRLELENVPFDMRFILDNVSSLLSGKANEKGIELAVYVSSQVPDVVVGDPSRFRQIITNLVGNSIKFTQERGHIFISVHLADEVKEPLTIEDAVLKQRLALGCSESGETVSGFPAVNAWGSWKNFKTCYSTESQNSDQIKLLVTVEDTGVGIPVDAQGRIFTPFMQADSSTSRTYGGTGIGLSISKRLVELMQGEMGFVSEPGIGSTFSFTGVFGKAETNTSITKLERFDLAIQEFTGLRALVIDNRNIRAEVTRYELRRLGISADIVSSLRMACTCCISKLENLAMILIDKDAWNKEEFSVLDELFTRSKVTFTRVPKIFLLATSATLTERSEMKSTGLIDEVVIKPLRMSVLICCLQETLVNGKKRQPNRQRRNLGHLLREKQILVVDDNLVNRRVAEGALKKYGAIVTCVESGKAALAMLKPPHNFDACFMDLQMPEMDGFEATRRVRELEREINKKIASGEVSAEMFCKFSSWHVPILAMTADVIQATHEECMKCGMDGYVSKPFEEEVLYTAVARFFEPC |  | suppress the phenotypic consequences of cytokinin deficiency | significantly enhance the vegetative growth | thicker stems | bigger flowers | earliest onset of leaf senescence | effect is strongest | more siliques on the main stem | increased |
